# Assay results as given in PMC2121029.
# Read-outs that look alike come from different tables or passages of the source.
# Tests used:
# [1] = target: beta-actin from bovine erythrocytes (bovine) (UniProt P60712); assay: shift of the critical concentration for actin polymerization
# [2] = target: beta-actin from bovine erythrocytes (bovine) (UniProt P60712)
# [3] = target: beta-actin from bovine erythrocytes (bovine) (UniProt P60712); assay: kinetic simulation
# [4] = target: alpha-actin from chicken skeletal muscle (chicken) (UniProt P68139); assay: actin uncapping assay
# [5] = target: alpha-actin from chicken skeletal muscle (chicken) (UniProt P68139); assay: kinetic simulation
Substance,Kd [1] [nM],koff [2] [s⁻¹],koff [3] [s⁻¹],kon [3] [M⁻¹ s⁻¹],half-life of a capped barbed end with PIP2 [4] [s],koff [5] [s⁻¹]
capping protein of chicken kidney and brain containing the beta2 subunit (CP-beta2) (from UniProt P13127;P28497;P14315-2) (complex),0.08,0.00031,0.00095,3.9e+06,–,–
capping protein of chicken skeletal (pectoral) muscle containing the beta1 subunit (CP-beta1) (from UniProt P13127;P28497;P14315-1) (complex),–,–,–,–,46,0
